For the experiment, the target named is Synaptophysin (rat (endogenous in rat brain synaptic vesicles)), P07825. Put plainly: cross-linking; BS3 cross-linked synaptic vesicle proteins, gel electrophoresis, western blot with antibodies against Synaptobrevin-2 and Synaptophysin. The settings on record: remark: other sources report otherwise.

B1: Synaptophysin, P07825 1-307 (natural protein)
chain: MDVVNQLVAGGQFRVVKEPLGFVKVLQWVFAIFAFATCGSYTGELRLSVECANKTESALNIEVEFEYPFRLHQVYFDAPSCVKGGTTKIFLVGDYSSSAEFFVTVAVFAFLYSMGALATYIFLQNKYRENNKGPMMDFLATAVFAFMWLVSSSAWAKGLSDVKMATDPENIIKEMPMCRQTGNTCKELRDPVTSGLNTSVVFGFLNLVLWVGNLWFVFKETGWAAPFMRAPPGAPEKQPAPGDAYGDAGYGQGPGGYGPQDSYGPQGGYQPDYGQPASGGGGYGPQGDYGQQGYGQQGAPTSFSNQM
For the molecule B1, the stoichiometry N (as a rule, a count of units in the complex or per binding partner) amounted to 2.
